System: hcGAScat-WT (human)
Assay: fluorescence anisotropy
Conditions: reference; EMSA: 25 mM Tris-HCl pH 7.5, 1 mM DTT, 100 ug/ml BSA, 1 mM MgCl2, 45 mM KCl, 37 C 10 min, 7% PAGE in TAE at 4 C; FA: 5-10 nM FAM-dsDNA, Hill fit, buffer not …

dsDNA24 showed a binding signal (relative to WT) of 1.

Reference: PMC6826206
